Measured values: patent publication US20230139053A1

What was measured:
[1] = molecular target: anti-A2M antibody (MAB) labeled with a donor fluorophore; experiment: competitive TR-FRET, competitor acceptor-labeled isolated A2M, whole blood; A2M 0 ug/mL, multiplex cals, 30 min (FIG. 2I)
[2] = molecular target: anti-A2M antibody (MAB) labeled with a donor fluorophore; experiment: competitive TR-FRET, competitor acceptor-labeled isolated A2M, whole blood; A2M 1000 ug/mL, multiplex cals, 5 min (FIG. 2I)
[3] = molecular target: anti-A2M antibody (MAB) labeled with a donor fluorophore; experiment: competitive TR-FRET, competitor acceptor-labeled isolated A2M; unlabeled A2M 1000 ug/mL, mean of 4 replicates (FIG. 2G)
[4] = molecular target: anti-A2M antibody (MAB) labeled with a donor fluorophore; experiment: competitive TR-FRET, competitor acceptor-labeled isolated A2M, whole blood; A2M 500 ug/mL, singleplex cals, 30 min (FIG. 2I)
[5] = molecular target: anti-A2M antibody (MAB) labeled with a donor fluorophore; experiment: competitive TR-FRET, competitor acceptor-labeled isolated A2M, whole blood; A2M 200 ug/mL, singleplex cals, 30 min (FIG. 2I)
[6] = molecular target: anti-A2M antibody (MAB) labeled with a donor fluorophore; experiment: competitive TR-FRET, competitor acceptor-labeled isolated A2M, whole blood; A2M 4000 ug/mL, multiplex cals, 5 min (FIG. 2I)
[7] = molecular target: anti-A2M antibody (MAB) labeled with a donor fluorophore; experiment: competitive TR-FRET, competitor acceptor-labeled isolated A2M, whole blood; A2M 500 ug/mL, multiplex cals, 5 min (FIG. 2I)
[8] = molecular target: anti-A2M antibody (MAB) labeled with a donor fluorophore; experiment: competitive TR-FRET, competitor acceptor-labeled isolated A2M, whole blood; A2M 2000 ug/mL, multiplex cals, 5 min (FIG. 2I)
[9] = molecular target: anti-A2M antibody (MAB) labeled with a donor fluorophore; experiment: competitive TR-FRET, competitor acceptor-labeled isolated A2M, whole blood; A2M 1000 ug/mL, singleplex cals, 30 min (FIG. 2I)
[10] = molecular target: anti-A2M antibody (MAB) labeled with a donor fluorophore; experiment: competitive TR-FRET, competitor acceptor-labeled isolated A2M, whole blood; A2M 500 ug/mL, multiplex cals, 30 min (FIG. 2I)
[11] = molecular target: anti-A2M antibody (MAB) labeled with a donor fluorophore; experiment: competitive TR-FRET, competitor acceptor-labeled isolated A2M, whole blood; A2M 0 ug/mL, multiplex cals, 5 min (FIG. 2I)
[12] = molecular target: anti-A2M antibody (MAB) labeled with a donor fluorophore; experiment: competitive TR-FRET, competitor acceptor-labeled isolated A2M, whole blood; A2M 1000 ug/mL, singleplex cals, 5 min (FIG. 2I)
[13] = molecular target: anti-A2M antibody (MAB) labeled with a donor fluorophore; experiment: competitive TR-FRET, competitor acceptor-labeled isolated A2M, whole blood; A2M 4000 ug/mL, singleplex cals, 30 min (FIG. 2I)
[14] = molecular target: anti-A2M antibody (MAB) labeled with a donor fluorophore; experiment: competitive TR-FRET, competitor acceptor-labeled isolated A2M, whole blood; A2M 500 ug/mL, singleplex cals, 5 min (FIG. 2I)
[15] = molecular target: anti-A2M antibody (MAB) labeled with a donor fluorophore; experiment: competitive TR-FRET, competitor acceptor-labeled isolated A2M, whole blood; A2M 0 ug/mL, singleplex cals, 30 min (FIG. 2I)
[16] = molecular target: anti-A2M antibody (MAB) labeled with a donor fluorophore; experiment: competitive TR-FRET, competitor acceptor-labeled isolated A2M, whole blood; A2M 2000 ug/mL, singleplex cals, 5 min (FIG. 2I)
[17] = molecular target: anti-A2M antibody (MAB) labeled with a donor fluorophore; experiment: competitive TR-FRET, competitor acceptor-labeled isolated A2M; unlabeled A2M 0 ug/mL, mean of 4 replicates (FIG. 2G)
[18] = molecular target: anti-A2M antibody (MAB) labeled with a donor fluorophore; experiment: competitive TR-FRET, competitor acceptor-labeled isolated A2M, whole blood; A2M 1000 ug/mL, multiplex cals, 30 min (FIG. 2I)
[19] = molecular target: anti-A2M antibody (MAB) labeled with a donor fluorophore; experiment: competitive TR-FRET, competitor acceptor-labeled isolated A2M, whole blood; A2M 200 ug/mL, multiplex cals, 5 min (FIG. 2I)
[20] = molecular target: anti-A2M antibody (MAB) labeled with a donor fluorophore; experiment: competitive TR-FRET, competitor acceptor-labeled isolated A2M, whole blood; A2M 4000 ug/mL, singleplex cals, 5 min (FIG. 2I)
[21] = molecular target: anti-A2M antibody (MAB) labeled with a donor fluorophore; experiment: competitive TR-FRET, competitor acceptor-labeled isolated A2M, whole blood; A2M 200 ug/mL, multiplex cals, 30 min (FIG. 2I)
[22] = molecular target: anti-A2M antibody (MAB) labeled with a donor fluorophore; experiment: competitive TR-FRET, competitor acceptor-labeled isolated A2M, whole blood; A2M 4000 ug/mL, multiplex cals, 30 min (FIG. 2I)
[23] = molecular target: anti-A2M antibody (MAB) labeled with a donor fluorophore; experiment: competitive TR-FRET, competitor acceptor-labeled isolated A2M; unlabeled A2M 200 ug/mL, mean of 4 replicates (FIG. 2G)
[24] = molecular target: anti-A2M antibody (MAB) labeled with a donor fluorophore; experiment: competitive TR-FRET, competitor acceptor-labeled isolated A2M, whole blood; A2M 2000 ug/mL, singleplex cals, 30 min (FIG. 2I)
[25] = molecular target: anti-A2M antibody (MAB) labeled with a donor fluorophore; experiment: competitive TR-FRET, competitor acceptor-labeled isolated A2M, whole blood; A2M 200 ug/mL, singleplex cals, 5 min (FIG. 2I)
[26] = molecular target: anti-A2M antibody (MAB) labeled with a donor fluorophore; experiment: competitive TR-FRET, competitor acceptor-labeled isolated A2M; unlabeled A2M 2000 ug/mL, mean of 4 replicates (FIG. 2G)
[27] = molecular target: anti-A2M antibody (MAB) labeled with a donor fluorophore; experiment: competitive TR-FRET, competitor acceptor-labeled isolated A2M; unlabeled A2M 500 ug/mL, mean of 4 replicates (FIG. 2G)
[28] = molecular target: anti-A2M antibody (MAB) labeled with a donor fluorophore; experiment: competitive TR-FRET, competitor acceptor-labeled isolated A2M, whole blood; A2M 0 ug/mL, singleplex cals, 5 min (FIG. 2I)
[29] = molecular target: anti-A2M antibody (MAB) labeled with a donor fluorophore; experiment: competitive TR-FRET, competitor acceptor-labeled isolated A2M, whole blood; A2M 2000 ug/mL, multiplex cals, 30 min (FIG. 2I)
[30] = molecular target: anti-A2M antibody (MAB) labeled with a donor fluorophore; experiment: competitive TR-FRET, competitor acceptor-labeled isolated A2M; unlabeled A2M 4000 ug/mL, mean of 4 replicates (FIG. 2G)

B1: A2M (alpha-2-macroglobulin), unlabeled calibrator / analyte (protein)
chain: SVSGKPQYMVLVPSLLHTETTEKGCVLLSYLNETVTVSASLESVRGNRSLFTDLEAENDVLHCVAFAVPKSSSNEEVMFLTVQVKGPTQEFKKRTTVMVKNEDSLVFVQTDKSIYKPGQTVKFRVVSMDENFHPLNELIPLVYIQDPKGNRIAQWQSFQLEGGLKQFSFPLSSEPFQGSYKVVVQKKSGGRTEHPFTVEEFVLPKFEVQVTVPKIITILEEEMNVSVCGLYTYGKPVPGHVTVSICRKYSDASDCHGEDSQAFCEKFSGQLNSHGCFYQQVKTKVFQLKRKEYEMKLHTEAQIQEEGTVVELTGRQSSEITRTITKLSFVKVDSHFRQGIPFFGQVRLVDGKGVPIPNKVIFIRGNEANYYSNATTDEHGLVQFSINTTNVMGTSLTVRVNYKDRSPCYGYQWVSEEHEEAHHTAYLVFSPSKSFVHLEPMSHELPCGHTQTVQAHYILNGGTLLGLKKLSFYYLIMAKGGIVRTGTHGLLVKQEDMKGHFSISIPVKSDIAPVARLLIYAVLPTGDVIGDSAKYDVENCLANKVDLSFSPSQSLPASHAHLRVTAAPQSVCALRAVDQSVLLMKPDAELSASSVYNLLPEKDLTGFPGPLNDQDNEDCINRHNVYINGITYTPVSSTNEKDMYSFLEDMGLKAFTNSKIRKPKMCPQLQQYEMHGPEGLRVGFYESDVMGRGHARLVHVEEPHTETVRKYFPETWIWDLVVVNSAGVAEVGVTVPDTITEWKAGAFCLSEDAGLGISSTASLRAFQPFFVELTMPYSVIRGEAFTLKATVLNYLPKCIRVSVQLEASPAFLAVPVEKEQAPHCICANGRQTVSWAVTPKSLGNVNFTVSAEALESQELCGTEVPSVPEHGRKDTVIKPLLVEPEGLEKETTFNSLLCPSGGEVSEELSLKLPPNVVEESARASVSVLGDILGSAMQNTQNLLQMPYGCGEQNMVLFAPNIYVLDYLNETQQLTPEIKSKAIGYLNTGYQRQLNYKHYDGSYSTFGERYGRNQGNTWLTAFVLKTFAQARAYIFIDEAHITQALIWLSQRQKDNGCFRSSGSLLNNAIKGGVEDEVTLSAYITIALLEIPLTVTHPVVRNALFCLESAWKTAQEGDHGSHVYTKALLAYAFALAGNQDKRKEVLKSLNEEAVKKDNSVHWERPQKPKAPVGHFYEPQAPSAEVEMTSYVLLAYLTAQPAPTSEDLTSATNIVKWITKQQNAQGGFSSTQDTVVALHALSKYGAATFTRTGKAAQVTIQSSGTFSSKFQVDNNNRLLLQQVSLPELPGEYSMKVTGEGCVYLQTSLKYNILPEKEEFPFALGVQTLPQTCDEPKAHTSFQISLSVSYTGSRSASNMAIVDVKMVSGFIPLKPTVKMLERSNHVSRTEVSSNHVLIYLDKVSNQTLSLFFTVLQDVPVRDLKPAIVKVYDYYETDEFAIAEYNAPCSKDLGNA
**Q.** With B1 as the binder, how does the F/B [1] read?
**A.** The F/B was 1.

**Q.** What about the F/B [2] of the same binder?
**A.** The F/B was 0.58.

**Q.** And the F/B Mean [3]?
**A.** The F/B Mean was 0.666.

**Q.** And the F/B [4]?
**A.** Its F/B is 0.71.

**Q.** And the F/B [5]?
**A.** Its F/B is 0.88.

**Q.** What about the F/B [6] of the same binder?
**A.** The F/B was 0.34.

**Q.** What about the F/B [7] of the same binder?
**A.** Its F/B is 0.71.

**Q.** And the F/B [8]?
**A.** The F/B was 0.45.

**Q.** What about the F/B [9] of the same binder?
**A.** Its F/B is 0.59.

**Q.** And the F/B [10]?
**A.** Its F/B is 0.74.

**Q.** What about the F/B [11] of the same binder?
**A.** Its F/B is 1.

**Q.** And the F/B [12]?
**A.** Its F/B is 0.58.

**Q.** What about the F/B [13] of the same binder?
**A.** The F/B was 0.33.

**Q.** What about the F/B [14] of the same binder?
**A.** Its F/B is 0.72.

**Q.** And the F/B [15]?
**A.** The F/B was 1.

**Q.** And the F/B [16]?
**A.** The F/B was 0.43.

**Q.** And the F/B Mean [17]?
**A.** Its F/B Mean is 1.

**Q.** And the F/B [18]?
**A.** The F/B was 0.56.

**Q.** And the F/B [19]?
**A.** The F/B was 0.83.

**Q.** What about the F/B [20] of the same binder?
**A.** The F/B was 0.33.

**Q.** What about the F/B [21] of the same binder?
**A.** The F/B was 0.87.

**Q.** What about the F/B [22] of the same binder?
**A.** Its F/B is 0.33.

**Q.** What about the F/B Mean [23] of the same binder?
**A.** The F/B Mean was 0.905.

**Q.** What about the F/B [24] of the same binder?
**A.** The F/B was 0.43.

**Q.** And the F/B [25]?
**A.** The F/B was 0.88.

**Q.** And the F/B Mean [26]?
**A.** Its F/B Mean is 0.532.

**Q.** And the F/B Mean [27]?
**A.** Its F/B Mean is 0.795.

**Q.** What about the F/B [28] of the same binder?
**A.** The F/B was 1.

**Q.** What about the F/B [29] of the same binder?
**A.** Its F/B is 0.45.

**Q.** And the F/B Mean [30]?
**A.** The F/B Mean was 0.393.
